Molecular target: Recombinant Human TGF-β1, manufactured by Peprotech (human) (UniProt P01137)
Test: cell-based or functional assay

Recombinant Human TGF-β1, manufactured by Peprotech (human), sequence (P01137 279-390 limits assumed): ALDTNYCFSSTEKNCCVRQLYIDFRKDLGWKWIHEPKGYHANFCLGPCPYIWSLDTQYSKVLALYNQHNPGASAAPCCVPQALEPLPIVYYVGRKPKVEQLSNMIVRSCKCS

Substance known TGF-β antibody (R&D, MAB1835) has a cell (luciferase assay inhibitory rate (%)) of 100%.

Reference: patent US20220282255A1
